Consider 29 molecules from patent publication US20260125454A1 (SHANGHAI JUNSHI BIOSCIENCES, published 2026).

The test deals with T1, Biotin-huCGRPaSA (human, not fully specified; biotin (position not given)).
T1 construct: exact construct ('aSA') not explained; also called Biotin CGRPaSA; full-length (1-37) CGRP
T1 peptide: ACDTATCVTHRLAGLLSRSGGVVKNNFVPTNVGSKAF
The experiment in a line: ELISA, supernatant; relative to chimeric C245. The method, then: Biotin CGRPaSA was diluted with PBS (Hyclone) to 1.0 μg/mL, and the dilution was added to a microplate at 100 μL/well. The plate was let stand in an incubator at 37° C. and coated for 90 min and then washed, and 2% BSA was added to the plate at 200 μL/well. The plate was incubated in an incubator at 37° C. for 90 min and then washed. The humanized antibodies in Table 8 and the reference antibody (chimeric antibody C245) were diluted to 1000 ng/mL with a diluent (2% BSA) with a dilution factor of not more than 10. Then, the chimeric antibodies and the reference antibody were serially 2.5-fold diluted on a sample dilution plate. All the chimeric antibody solutions and the reference antibody solution were added into plates at 100 μL/well, and the plates were incubated in a thermostat incubator at 37° C. for 60 min and washed. An HRP-conjugated goat anti-human antibody IgG (manufacturer: Sigma, Cat. No. A0170; Fc specificity) was diluted 5000-fold with 2% BSA and added into the plates at 100 μL/well, and the plates were incubated in the thermostat incubator at 37° C. for 60 min and washed. Chromogenic reagent TMB was carefully added at 100 μL/well to avoid bubbles, and the system was incubated at 37° C. for 15 min away from light for chromogenic reaction. Finally, a 2 M hydrochloric acid solution was added at 100 μL/well to stop the reaction while avoiding bubbles, and the plates were read on a microplate reader within 10 min (wavelength: 450/620 nm).
For orientation: In an ELISA, binding on a coated surface is turned into a signal by an enzyme label.

Substitutions are numbered along the chain they refer to.

B1: hu219 (antibody, V domains shown)
VH: QVQLVQSGAEVKKPGASVKVSCKASGYTFTDYNMHWVRQAPGQGLEWMGYIYPYNGHTVYNQKFRNRVTLTVDTSSSTAYMELRSLRSDDTAVYYCAREGLGGYWGQGTLVTVSS
VL: DIVLTQSPDSLAVSLGERATINCKASQNIDYDGYTYLNWYQQKPGQPPKVLIYSIFNLESGVPDRFSGSGSGTDFTLTISSLQAEDVAVYYCQQSNEVPYTFGQGTKLEIK
notes: 3H10 HC-2/3E5 LC-1
In the case of B1, the “Relative binding activity, %” value came to 78%.

B2: hu217 (antibody, V domains shown)
VH: B1 VH
VL: DIVLTQSPDSLAVSLGERATINCQASQNIDGNTYMNWYQQKPGQPPKVLIYSIFNLESGVPDRFSGSGSGTDFTLTISSLQAEDVAVYYCQQSNDYPYTFGQGTKLEIK
notes: 3H10 HC-2/2B8 LC2-1
In the case of B2, the “Relative binding activity, %” value is 73%.

B3: hu206 (antibody, V domains shown)
VH: B1 VH with L70M, R98K
VL: B1 VL
notes: 3H10 HC-1/3E5 LC-1
For the molecule B3, the “Relative binding activity, %” value turned out to be 70%.

B4: hu139 (antibody, V domains shown)
VH: B1 VH with Y50N, G56A, H57G, R65N, R84S, S85R
VL: B2 VL
notes: 2B8 HC1-3/2B8 LC2-1
Consider B4, for which the “Relative binding activity, %” value was found to be 84%.

B5: hu126 (antibody, V domains shown)
VH: B1 VH with Y50N, H57G, R65N
VL: B2 VL
notes: 2B8 HC1-2/2B8 LC2-1
Turning to B5, the “Relative binding activity, %” value is 79%.

B6: hu142 (antibody, V domains shown)
VH: B1 VH with Y50N, G56A, H57G, R65N, R84S, S85R
VL: B1 VL with D32G, T35S, L37M, I55V, V98A
notes: 2B8 HC1-3/3H10 LC2-1
In the case of B6, the “Relative binding activity, %” value came out at 84%.

B7: hu48 (antibody, V domains shown)
VH: B1 VH with Y32F, G44R, H57D, T58V, K63N, R65T, R84S, D89E
VL: B2 VL
notes: 1F5 HC-2/2B8 LC2-1
Regarding B7, the “Relative binding activity, %” value came out at 40%.

B8: hu220 (antibody, V domains shown)
VH: B1 VH
VL: B1 VL with D32G, T35S, L37M, I55V, V98A
notes: 3H10 HC-2/3H10 LC2-1
Turning to B8, the “Relative binding activity, %” value came to 83%.

B9: hu24 (antibody, V domains shown)
VH: B1 VH with G44R, Y52F, H57V, T58A, Q62R, N66S, R84S, D89E
VL: B1 VL
notes: 1B2 HC-2/3E5 LC-1
In the case of B9, the “Relative binding activity, %” value was determined as 73%.

B10: hu11 (antibody, V domains shown)
VH: B1 VH with Y52F, H57V, T58A, Q62R, N66S, V72I
VL: B1 VL
notes: 1B2 HC-1/3E5 LC-1
With B10, the “Relative binding activity, %” value stood at 49%.

B11: hu116 (antibody, V domains shown)
VH: B1 VH with Y50N, H57G, R65N, R84S, S85R
VL: B1 VL with D32G, T35S, L37M, I55V, V98A
notes: 2B8 HC1-1/3H10 LC2-1
For the molecule B11, the “Relative binding activity, %” value came to 88%.

B12: hu8 (antibody, V domains shown)
VH: B1 VH with Y52F, H57V, T58A, Q62R, N66S, V72I
VL: B1 VL with Y31F, T35A, L37M, Q42H, I55V, N96H
notes: 1B2 HC-1/1F5 LC1-4
Take B12: the “Relative binding activity, %” value came to 72%.

B13: hu180 (antibody, V domains shown)
VH: B1 VH with Y52S, H57G, V59A, R65K, N66F, R84S, S85R, A92V
VL: B1 VL
notes: 3E5 HC-3/3E5 LC-1
For B13, the “Relative binding activity, %” value came to 87%.

B14: hu207 (antibody, V domains shown)
VH: B1 VH with L70M, R98K
VL: B1 VL with D32G, T35S, L37M, I55V, V98A
notes: 3H10 HC-1/3H10 LC2-1
For the molecule B14, the “Relative binding activity, %” value amounted to 56%.

B15: hu138 (antibody, V domains shown)
VH: B1 VH with Y50N, G56A, H57G, R65N, R84S, S85R
VL: B1 VL with Y31F, T35A, L37M, Q42H, I55V, N96H
notes: 2B8 HC1-3/1F5 LC1-4
In the case of B15, the “Relative binding activity, %” value stood at 102%.

B16: hu112 (antibody, V domains shown)
VH: B1 VH with Y50N, H57G, R65N, R84S, S85R
VL: B1 VL with Y31F, T35A, L37M, Q42H, I55V, N96H
notes: 2B8 HC1-1/1F5 LC1-4
As to B16, the “Relative binding activity, %” value was 14%.

B17: hu12 (antibody, V domains shown)
VH: B1 VH with Y52F, H57V, T58A, Q62R, N66S, V72I
VL: B1 VL with D32G, T35S, L37M, I55V, V98A
notes: 1B2 HC-1/3H10 LC2-1
Take B17: the “Relative binding activity, %” value stood at 73%.

B18: hu9 (antibody, V domains shown)
VH: B1 VH with Y52F, H57V, T58A, Q62R, N66S, V72I
VL: B2 VL
notes: 1B2 HC-1/2B8 LC2-1
On to B18, for which the “Relative binding activity, %” value was 45%.

B19: hu61 (antibody, V domains shown)
VH: B1 VH with Y32F, H57D, T58V, K63N, R65T
VL: B2 VL
notes: 1F5 HC-3/2B8 LC2-1
Turning to B19, the “Relative binding activity, %” value was 56%.

B20: hu125 (antibody, V domains shown)
VH: B1 VH with Y50N, H57G, R65N
VL: B1 VL with Y31F, T35A, L37M, Q42H, I55V, N96H
notes: 2B8 HC1-2/1F5 LC1-4
Take B20: the “Relative binding activity, %” value is 34%.

B21: hu216 (antibody, V domains shown)
VH: B1 VH
VL: B1 VL with Y31F, T35A, L37M, Q42H, I55V, N96H
notes: 3H10 HC-2/1F5 LC1-4
Regarding B21, the “Relative binding activity, %” value worked out at 58%.

B22: hu115 (antibody, V domains shown)
VH: B1 VH with Y50N, H57G, R65N, R84S, S85R
VL: B1 VL
notes: 2B8 HC1-1/3E5 LC-1
On to B22, for which the “Relative binding activity, %” value came to 98%.

B23: hu35 (antibody, V domains shown)
VH: B1 VH with T30I, Y32F, G44R, H57D, T58V, K63N, R65T, R84S, D89E
VL: B2 VL
notes: 1F5 HC-1/2B8 LC2-1
With B23, the “Relative binding activity, %” value worked out at 65%.

B24: hu113 (antibody, V domains shown)
VH: B1 VH with Y50N, H57G, R65N, R84S, S85R
VL: B2 VL
notes: 2B8 HC1-1/2B8 LC2-1
In the case of B24, the “Relative binding activity, %” value was determined as 44%.

B25: hu203 (antibody, V domains shown)
VH: B1 VH with L70M, R98K
VL: B1 VL with Y31F, T35A, L37M, Q42H, I55V, N96H
notes: 3H10 HC-1/1F5 LC1-4
With B25, the “Relative binding activity, %” value stood at 33%.

B26: hu60 (antibody, V domains shown)
VH: B1 VH with Y32F, H57D, T58V, K63N, R65T
VL: B1 VL with Y31F, T35A, L37M, Q42H, I55V, N96H
notes: 1F5 HC-3/1F5 LC1-4
With B26, the “Relative binding activity, %” value worked out at 11%.

B27: hu141 (antibody, V domains shown)
VH: B1 VH with Y50N, G56A, H57G, R65N, R84S, S85R
VL: B1 VL
notes: 2B8 HC1-3/3E5 LC-1
Regarding B27, the “Relative binding activity, %” value stood at 86%.

B28: hu102 (antibody, V domains shown)
VH: B1 VH with G44R, I51V, H57G, T58S, V59A, R65K, N66S, R84S, D89E
VL: B1 VL
notes: 2A2 HC-1/3E5 LC-1
B28: the “Relative binding activity, %” value stood at 94%.

B29: hu22 (antibody, V domains shown)
VH: B1 VH with G44R, Y52F, H57V, T58A, Q62R, N66S, R84S, D89E
VL: B2 VL
notes: 1B2 HC-2/2B8 LC2-1
Consider B29, for which the “Relative binding activity, %” value is 76%.
